Test results from a protein production outcome set (Wang et al. 2014).

experiment: label from the status in PepcDB records
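Note: failed if final PepcDB status was selected cloned or expressed and not failed if soluble or beyond.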

**Q.** For “MGNLTTILYFAYAPALALLWYFYHQDRLEPEPKRVVIGTFILGGTLSVSVALIVESLLVPRWFPRIPALLPATFLYISLIAGIVEEPAKALAIKYAYNSGHLYGIMDGVVYGVAAGLGFAATENLLYGLGYGVHVTIQRALLTPIGHATWSAIVGVGYGLKAEGKVYTLAPYFTLAVLLHFLWDYYAFMSSISPVYYGIVLLIFTINVLIIRWLIILGRKEDMERFWWYRILGGRRW”, which protein production is on record?
**A.** failed

**Q.** Which protein production does the source give for “MGNNSESKGSASDSKGAETFTYKAENGNVKIPKHPKRVVVMADGYYGYFKTLGINVVGAPENVFKNPYYKGKTNGVENIGDGTSVEKVIDLNPDLIIVWTTQGADIKKLEKIAPTVAVKYDKLDNIEQLKEFAKMTGTEDKAEKWLAKWDKKVAAAKTKIKKAVGDKTISIMQTNGKDIYVFGKDFGRGGSIIYKDLGLQATKLTKEKAIDQGPGYTSISLEKLPDFAGDYIFAGPWQSGGDDGGVFESSIWKNLNAVKNGHVYKMDPIGFYFTDPISLEGQLEFITESLTKLEHHHHHH” here?
**A.** not failed

**Q.** For “MGNPADQKDSKAKQKTEVFPVTIDDASNQDVTIKKEPKKIVSLMPSNTEITYALGLGDKVVGVTTNDTYPKEVKKVEKVGDMNVNVEKVISLKPDLVLAHESSMSASADAIKQLKDAGITVLTVNDAQSFSEVYKSIEMIGEAGGAEKKADQLVKSMKSDLKDIQEKAKTISKDEEKSVFIEVSPDPDIYTTGKDTFMNEMLNVIHAKNAAADQTGWVQMTDEAIVKLNPDAIVTTDGVKAKAVEKRDGWSEINAVKHHRVYDVDPDLVTRSGPRLIEGVEELAESIYPDTFKE”, which protein production is on record?
**A.** failed

**Q.** With “MGNRSTADADGLLAGRGPAAGASAGASAGLAGQGAAALVGGVLLIGAVLAGNSLVCVSVATERALQTPTNSFIVSLAAADLLLALLVLPLFVYSEVQGGAWLLSPRLCDALMAMDVMLCTASIFNLCAISVDRFVAVAVPLRYNRQGGSRRQLLLIGATWLLSAAVAAPVLCGLNDVRGRDPAVCRLEDRDYVVYSSVCSFFLPCPLMLLLYWATFRGLQRWEVARRAKLHGRAPRRPSGPGPPSPTPPAPRLPQDPCGPDCAPPAPGLPRGPCGPDCAPAAPGLPPDPCGPDCAPPAPGLPQDPCGPDCAPPAPGLPRGPCGPDCAPPAPGLPQDPCGPDCAPPAPGLPPDPCGSNCAPPDAVRAAALPPQTPPQTRRRRRAKITGRERKAMRVLPVVVGAFLLCWTPFFVVHITQALCPACSVPPRLVSAVTWLGYVNSALNPVIYTVFNAEFRNVFRKALRACC” as the sequence, how does the protein production read?
**A.** failed

**Q.** With “MGNSITVKRKRAKVMKIDGETFRIKTPVTAREVTADYPGYVLLDSQAVKHFGVRSKPLEPNQTLKPKKTYFLVELPKLPPETTAVDTENKLPYRRVMSGIHVGAKERLDMLMLSRRTVSDVTIGRSDGGDGFGPELGPGHTSVRLRLPRSQITKLMEENNNDASAIAEKILGIYMERSGELGGGRGGVDGRRELGSGEIKAREVSFAGEGGRELPVLWSRSGK” as the sequence, how does the protein production read?
**A.** failed

**Q.** With “MGPERHLSGAPARMATVVLGGDTMGPERIFPNQTEELGHQGPSEGTGDWSSEEPEEEQEETGSGPAGYSYQPLNQDPEQEEVELAPVGDGDVVADIQDRIQALGLHLPDPPLESEDEDEEGATALNNHSSIPMDPEHVELVKRTMAGVSLPAPGVPAWAREISDAQWEDVVQKALQARQASPAWK” as the sequence, how does the protein production read?
**A.** failed

**Q.** With “MGPKRRQLTFREKSRIIQEVEENPDLRKGEIARRFNIPPSTLSTILKNKRAILASERKYGVASTCRKTNKLSPYDKLEGLLIAWFQQIRAAGLPVKGIILKEKALRIAEELGMDDFTASNGWLDRFRRRRS” as the sequence, how does the protein production read?
**A.** not failed

**Q.** Which protein production does the source give for “MGPLVKEKYEEVEQIPLKKPHIVSLIGGFGYREPIFRKVLTTAALDSGINYTLISGPSLDPSKFKEIPKNVQILRFVGDTFPYIRSSDAVIAPGGHSTMMEALSFGTPILSFPDEGHSEQENNAAVIEEEGYGRMLSYSTPPEVILECIREVLEDKKYRDKVKRLQRLASELDGLEHHHHHH” here?
**A.** not failed

**Q.** For “MGQELLVRAHEPETADIEIIPVTTVVQVTEQNSTGDAAVALDTVTVVGERYVDDIVATLTTLRVGMAVLLQRESGNQYDDNAISVWTLQHAKLGYIARYQNQPYATLMDQGQRLYGIVTVLDQQKQHLELMLWRTTAVPSPIEALEHHHHHH”, which protein production is on record?
**A.** failed

**Q.** With “MGQFYCLHCDRYFSNVSVRDDHFKTKKHKKRVNMMMGQAPHSQLDADLAGGMGMPDNGPKLMSNLVFTELRKPETEDLPGMGQFNCLLCHRNFSNASVMDYHFKTKKHKKRVKKIERPAPHSQLDADLAGGMGMPDNGPKLMSA” as the sequence, how does the protein production read?
**A.** not failed

**Q.** For “MGQHEPGAALGRMVRAAWSETLGEDHPDTLAAANRLAGCLVGLRKYAEARDLFADLLPRCERALGWEDPLTLTVVSNLGGCLSALGAHEEARRQCEDIVRRSRLALGPDDPRTLRAASNLAVFLRRLDDHQAALAVWEDTLLRYRRVLGEDHPDTLHAKRDLVALLRAMGEHDRAHAVAGEPLEHHHHHH”, which protein production is on record?
**A.** failed

**Q.** For “MGQVEVIDRRQSVFGDDIQLQKRSSSYEIISNGVFLMSTENGRSEREMVTLGAQHMKNAVHSVLIGGLGVGITADEAVHLNDHVQVHVVEIEPSVVEWQYRYLYPFSNQALEHERTAIIISDIQQWLRTNERTYDLICLDTDNGPDWMVHKQNASLYGKIGLELVRERVRVGGAVSFWSASASESFLHELETLFDRVYEHAVSISHTLPPDYVYVACRDLEHHHHHH”, which protein production is on record?
**A.** not failed

**Q.** Which protein production does the source give for “MGRKRKHSETEAPAPVKKSDEPAPDRPKRTLLGWKDKSEGEAEKAKALTSSGFKNKEKVLVTCSRRISFRYRSLMLNIVSLLPHCKKDSKVEAKSSKGATLNELIELKNSNSCLFFECRKHKDLYMWMVKSPNGPSVKFLVKAVHAMEEMKLTGNHLKGSRPLLTFSSNFDKDAHWKLLKEMLTQVFGIPKEHRKSKPYHDHVFVFSIVDEHIWFRNYQISVPHNESDKIAKGGLDKMTLIEVGPRFCLNPIKIFAGSFGGPTLYENPLYVSPNQIRALEKRNKAGKFAKKIKAKTRKKMHELSNPLEPDEFADMWKDDE” here?
**A.** failed

**Q.** Which protein production does the source give for “MGRMSEKLGQDIKQSIFKVPPLIQKSDIDPEHCRVSAQLDDNVDDNIPLRVMLLLMDEVFDLKDRNQWLRRNIKNLLQQLIKATYGDTINRKIVDHVDNMTSPEQVSDYVKRFRDSYWPNGILAETPPRRDKNLRMRTRVAAKTTLLGIMPDELKHIIGADTTRKGILRVFEMFQHQPLNRRLVYVFLEGFLETLFPQYKFPELFEKLHSRSPRVLKYSHKLRSLQKR” here?
**A.** failed

**Q.** With “MGRNQGAYLDPSESILMLMVAFLLVLLNAFFVLSEFALVKVRKTRLEELVKIGNSNAKLALKMSQRLDTYLSATQLGITLSSLALGWVGEPAIAKLLAALFESMDLRENPIFIHSMSVVIAFLSITFLHVVLGEIVPKSLAIAKSEKATLFAARPLHVFWVVFYPVVRLFDVIAHFFLKKMGINPKEHDGTHSEEELKIIVGESLREGIIDSVEGEIIKNAXDFSDTSAKEIMTPRKDMVCLDEENSYEENIDIVLKGHFTRYPYCKGSKDNIIGMVHIRDLLSRSIFTPKMHDFNQIVRKMIIVPESASISQILIKMKKEQIHTALVIDEYGGTAGLLTMEDIIEEIMGEISDEYDLKQEGINKLEEGVFELEGMLDLESVEEALHIEFDKECEQVTLGGYVFSLLERMPMEGDTIVSHGYSFEVLSVDGARIKRLKAVKQDQGENEA” as the sequence, how does the protein production read?
**A.** failed

**Q.** For “MGRVYLVGAGPGDPELLTLKAYRLLKEAPVVLYDRLVDERVLALAPGEKVYVGKEEGESEKQEEIHRLLLRHARAHPFVVRLKGGDPMVFGRGGEEVLFLLRHGVPVEVVPGVTSLLASGLPLTHRGLAHGFAAVSGVLEGGGYPDLRPFARVPTLVVLMGVGRRVWIAKELLRLGRDPREPTLFVERASTPKERRVHARLEEVAEGKVEVRPPALWILGEVVRVFAEKEAPVDALALGG”, which protein production is on record?
**A.** not failed

**Q.** Which protein production does the source give for “MGSGESKANTAETPEVLDVKLTGPEKVNPGESAAYEAAVSYGDEAVTDADEVEFEVWKEGEKDASQMFKVKQEKGVYRLETTFKEDGVYTVQSHVTAKKQHSMPTLKVQVGDADAASNQSEEEHSHHHLEHHHHHH” here?
**A.** not failed

**Q.** With “MGSLGFLAGGVMPLEQLKQELSEVKGVFGVNLFRPQTDAPKPSDIDELAGLLSSAFRQFGLDEPTVPTPDLSNGWEAKFEAVLAAKPAVFSCTFGIFSAEEFARIKATGIEAWVTVTNPEDALAAQKAGANALVVQGPEAGGHRSTWSIEVEPDERDLKTLLAAVKQAGVYLPLIAAGGLSTSADVAAILEAGASAASCGSAFLLSDEAGTSSLNREILDAAPALGLESVSSRAFSGRYARGVETRFTRSNEGLPPLYPYLNPMITSLRKVAGSAGNWDYAYCLVGVGLESIAKGSAKQILESLTPSALEHHHHHH” as the sequence, how does the protein production read?
**A.** failed

**Q.** With “MGSPASASHEALRHILDAGASMGSLQGLDEAQQQALYAIAHGAYEQGRYADALKMFCLLVACDPLEARYLLALAAAAQELGLYEHALQQYAAAAALQLDSPRPLLHGAECLYALGRRRDALDTLDMVLELCGSPEHAALRERAESLRRSYARALEHHHHHH” as the sequence, how does the protein production read?
**A.** failed

**Q.** Which protein production does the source give for “MGSPNSLSRRGFCLCCVGGATFAASAGWLTPREAYAEARGLVSLIKDSAAISPITASRLRNNISVLEGSGGNIAVLTGSDGKLLVDAGIRVSRAQLTNALAGLGTDPVTHLVNTHWHFDHADGNEWLHSAGAKIIAHENTRKHLLGVQRVEDWDYNFLPLGPGGIPSEVFAGSHKLGLNGASISLKYFGPAHTDSDVSVTFVEANIVHVGDTFWNGIYPFIDYSTGGSIDGMIAACDANLAATDKDTIIIPGHGKPVSNKAELQAFRDMLVAIRDNVARLKAQGRTWDETVAAKPTAAFDAQWGQFVIDPGFFTRLVYQGV” here?
**A.** failed

**Q.** Which protein production does the source give for “MGSRDLISSLPDEILGKVLSLLPTKRAASTAVLSKRWNNLPALVDKLDINDAIGGPGGFPEFIDKTLALLTNSTTIKRTSLNNEFQYGESQVNTWIRSFLERGCLQLYLNAQSLYTIDTEFFTSNTLVELTITGGFSPDGLLPPGGVFFPKLKTLSLVLMTFVDSDMYELFISGCPLLEEFLLRNDEIEIPPVWNALVSSPSIKRLTIVHHFPNYREAHDGCWFRTPNLVYLDYSSYVPDWYEVDLGSLVEARLDLRSWERLRDEKAGGYGDCDSVYDDEEYPDDPILGDVTNLVTGLSNIKTLHLSPDSLEVSFPYLLLFQFEVHSSLQSLLIV” here?
**A.** failed

**Q.** With “MGSRTHARKDASSEALQAPRLRTLLLTDLCDSTALVERIGDNAAAALFREHDRLVVKLQQHWRGRLIDRSDGLLLLFDRPIDGLGFALDYARGLKTMGDAHALTLCARQGLHVGEVLTWRNSDEAISIGAKPLEVEGLAKPTAARLMSMARPGQILLSAVAESLTHRAARELGNRADRLLWKSHGRWRFKGMPTPMEIYEVGEVGLTPLRMPKNSAKAWRDVPLWRRPAALVAEVGVVLAVGIAAWFFIRPQPAIAFASRDWVVVGDVRNLTGNTVLDGALEQALRISLEQSRYVNVLSDMKVRDTVTRMKRDPNTIVLDRSVASEVALRDGASAVLLPTVAEVGGKLRFSVELVDPRTQTTVYSEFVQGDGLPSALSSVDQVTRKLRQGLGEMVASIDKNSVPLPAVTTSSLDALRAYALGVEATAKGRWREGLELFDRAVGIDPTFALAYLGAARIKVAVSDRNGALPYLDNAVRFRQRLPARDQLYLDAWIAELRAVDTALPLWRTLASLYPDNFAGAANTSWHLFVANRFADALPYAQAADVVQDPLRSIASDRIGRILMAQGKVEAALQRFENSSDGDRAGPLRRQADALAVLGRYAEEQRTLDRIVDNGYANDDVVPLIDRTSIALDQANWANANAAVAQALERSKHTDDFSYRQFLVIGATTAAITGETASVGPGMSSTFEALVGAIKANGPAEPNLQDDAAMVLSLVSQAQRNGDDQFTARALSAIKPALAHETPVLADLRAIVEAQHLALSGDRVAAIARLPPGPDDLLQMRVTLYTLLHDSGRHAEALQQARWLSLQRGRAYIEANASQTLQPLNVAHTRLARLWTAESLYALGRTQEAREQAQAFVRAWPASHLPAYLRSRVERILSDSKAKITV” as the sequence, how does the protein production read?
**A.** failed
